Two molecules from publication PMC5577222 can be followed below.

In test [1] the target is microtubules polymerized from porcine brain tubulin (taxol-stabilized) (porcine) (UniProt P02550). The experiment in a line: single-molecule TIRF microscopy; rhodamine-labelled taxol-stabilized microtubules held on the surface by anti-beta-tubulin; eGFP-DRG1 at 0.08, 0.4, 4, 40 nM in BRB80 assay buffer with 1 mM GTP, 25 °C; residence times from kymographs, not corrected for bleaching.

For test [2] the target is unchanged. The experiment in a line: co-sedimentation; 1 µM recombinant DRG1 with different concentrations of taxol-stabilized microtubules; Coomassie quantified with ImageJ, binding curve fitted.

B1: eGFP-DRG1 (Xenopus laevis DRG1 with N-terminal eGFP) (natural protein)
chain: MSGTLARIAEIEAEMARTQKNKATAYHLGLLKARLAKLRRELITPKGGGGGGPGEGFDVAKTGDARIGFVGFPSVGKSTLLSNLAGVYSEVAAYEFTTLTTVPGVVRYKGAKIQLLDLPGIIEGAKDGKGRGRQVIAVARTCNLILIVLDVLKPLGHKKIIENELEGFGIRLNKQPPNIGFKKKDKGGINLTATCAQSELDNDTVKSILAEYKIHNADITLRSDATADDLIDVVEGNRVYIPCIYVLNKIDQISIEELDIIYKVPHCVPISAHHRWNFDDLLEKIWDYLQLVRIYTKPKGQLPDYTSPVVLPCSHTAAEDFCTKIHKNLIKEFKYALVWGSSVKHNPQKVGKDHVLEDEDVIQIVKK
In the case of B1, in test [1], the residence time, diffusive population, 4 nM eGFP-DRG1 was found to be 2.2 s; the residence time, diffusive population, 40 nM eGFP-DRG1 came to 2.6 s; the residence time, immobile fraction, 0.08 nM eGFP-DRG1 worked out at 12 s; the residence time, immobile fraction, 0.4 nM eGFP-DRG1 is 12.4 s. In addition, in test [1], the residence time, immobile fraction, 4 nM eGFP-DRG1 stood at 11.1 s and the residence time, immobile fraction, 40 nM eGFP-DRG1 is 5.4 s.

B2: recombinant Xenopus laevis Developmentally regulated GTP binding protein 1 (DRG1), full length (natural protein)
chain: B1 chain
Take B2: the Kd in test [2] was found to be 470 nM.
